Measured values published in article PMC2275104 (Nucleic Acids Research, 2008).

B1: Methanothermobacter thermautotrophicus MCM protein, wild-type (enzyme, UniProt O27798 1-666, looked up)
chain: MMKTVDKSKTLTKFEEFFSLQDYKDRVFEAIEKYPNVRSIEVDYLDLEMFDPDLADLLIEKPDDVIRAAQQAIRNIDRLRKNVDLNIRFSGISNVIPLRELRSKFIGKFVAVDGIVRKTDEIRPRIVKAVFECRGCMRHHAVTQSTNMITEPSLCSECGGRSFRLLQDESEFLDTQTLKLQEPLENLSGGEQPRQITVVLEDDLVDTLTPGDIVRVTGTLRTVRDERTKRFKNFIYGNYTEFLEQEFEELQISEEDEEKIKELAGDPNIYEKIIRSTAPSIHGYREVKEAIALQLFGGTGKELDDKTRLRGDIHILIVGDPGIGKSQMLKYVSKLAPRGIYTSGKGTSGVGLTAAAVRDEFGGWSLEAGALVLGDKGNVCVDELDKMREEDRSAIHEALEQQTISIAKAGIMATLNSRCSVLAAANPKFGRFDSYKSIAEQIDLPSTILSRFDLIFVVEDKPDEEKDRELARHILKTHKEDHMPFEIDPELLRKYIAYARKNVRPVLTDEAMQVLEDFYVSMRASAADEDSPVPITARQLEALVRLSEASAKIKLKEHVEAEDARKAIKLSQACLKQVGYDPETGKIDIDKVEGRTPKSERDKFRLLLELIKEYEDDYGGRAPTNILITEMMDRYNVSEEKVEELIRILKDKGAIFEPARGYLKIV
B2: Methanothermobacter thermautotrophicus MCM protein, P193G mutant (enzyme, UniProt O27798 1-666, looked up)
chain: MMKTVDKSKTLTKFEEFFSLQDYKDRVFEAIEKYPNVRSIEVDYLDLEMFDPDLADLLIEKPDDVIRAAQQAIRNIDRLRKNVDLNIRFSGISNVIPLRELRSKFIGKFVAVDGIVRKTDEIRPRIVKAVFECRGCMRHHAVTQSTNMITEPSLCSECGGRSFRLLQDESEFLDTQTLKLQEPLENLSGGEQGRQITVVLEDDLVDTLTPGDIVRVTGTLRTVRDERTKRFKNFIYGNYTEFLEQEFEELQISEEDEEKIKELAGDPNIYEKIIRSTAPSIHGYREVKEAIALQLFGGTGKELDDKTRLRGDIHILIVGDPGIGKSQMLKYVSKLAPRGIYTSGKGTSGVGLTAAAVRDEFGGWSLEAGALVLGDKGNVCVDELDKMREEDRSAIHEALEQQTISIAKAGIMATLNSRCSVLAAANPKFGRFDSYKSIAEQIDLPSTILSRFDLIFVVEDKPDEEKDRELARHILKTHKEDHMPFEIDPELLRKYIAYARKNVRPVLTDEAMQVLEDFYVSMRASAADEDSPVPITARQLEALVRLSEASAKIKLKEHVEAEDARKAIKLSQACLKQVGYDPETGKIDIDKVEGRTPKSERDKFRLLLELIKEYEDDYGGRAPTNILITEMMDRYNVSEEKVEELIRILKDKGAIFEPARGYLKIV
B3: Methanothermobacter thermautotrophicus MCM protein, L184A mutant (enzyme, UniProt O27798 1-666, looked up)
chain: MMKTVDKSKTLTKFEEFFSLQDYKDRVFEAIEKYPNVRSIEVDYLDLEMFDPDLADLLIEKPDDVIRAAQQAIRNIDRLRKNVDLNIRFSGISNVIPLRELRSKFIGKFVAVDGIVRKTDEIRPRIVKAVFECRGCMRHHAVTQSTNMITEPSLCSECGGRSFRLLQDESEFLDTQTLKLQEPAENLSGGEQPRQITVVLEDDLVDTLTPGDIVRVTGTLRTVRDERTKRFKNFIYGNYTEFLEQEFEELQISEEDEEKIKELAGDPNIYEKIIRSTAPSIHGYREVKEAIALQLFGGTGKELDDKTRLRGDIHILIVGDPGIGKSQMLKYVSKLAPRGIYTSGKGTSGVGLTAAAVRDEFGGWSLEAGALVLGDKGNVCVDELDKMREEDRSAIHEALEQQTISIAKAGIMATLNSRCSVLAAANPKFGRFDSYKSIAEQIDLPSTILSRFDLIFVVEDKPDEEKDRELARHILKTHKEDHMPFEIDPELLRKYIAYARKNVRPVLTDEAMQVLEDFYVSMRASAADEDSPVPITARQLEALVRLSEASAKIKLKEHVEAEDARKAIKLSQACLKQVGYDPETGKIDIDKVEGRTPKSERDKFRLLLELIKEYEDDYGGRAPTNILITEMMDRYNVSEEKVEELIRILKDKGAIFEPARGYLKIV
B4: Methanothermobacter thermautotrophicus MCM protein, Q181A mutant (enzyme, UniProt O27798 1-666, looked up)
chain: MMKTVDKSKTLTKFEEFFSLQDYKDRVFEAIEKYPNVRSIEVDYLDLEMFDPDLADLLIEKPDDVIRAAQQAIRNIDRLRKNVDLNIRFSGISNVIPLRELRSKFIGKFVAVDGIVRKTDEIRPRIVKAVFECRGCMRHHAVTQSTNMITEPSLCSECGGRSFRLLQDESEFLDTQTLKLAEPLENLSGGEQPRQITVVLEDDLVDTLTPGDIVRVTGTLRTVRDERTKRFKNFIYGNYTEFLEQEFEELQISEEDEEKIKELAGDPNIYEKIIRSTAPSIHGYREVKEAIALQLFGGTGKELDDKTRLRGDIHILIVGDPGIGKSQMLKYVSKLAPRGIYTSGKGTSGVGLTAAAVRDEFGGWSLEAGALVLGDKGNVCVDELDKMREEDRSAIHEALEQQTISIAKAGIMATLNSRCSVLAAANPKFGRFDSYKSIAEQIDLPSTILSRFDLIFVVEDKPDEEKDRELARHILKTHKEDHMPFEIDPELLRKYIAYARKNVRPVLTDEAMQVLEDFYVSMRASAADEDSPVPITARQLEALVRLSEASAKIKLKEHVEAEDARKAIKLSQACLKQVGYDPETGKIDIDKVEGRTPKSERDKFRLLLELIKEYEDDYGGRAPTNILITEMMDRYNVSEEKVEELIRILKDKGAIFEPARGYLKIV
B5: Methanothermobacter thermautotrophicus MCM protein, E185R mutant (enzyme, UniProt O27798 1-666, looked up)
chain: MMKTVDKSKTLTKFEEFFSLQDYKDRVFEAIEKYPNVRSIEVDYLDLEMFDPDLADLLIEKPDDVIRAAQQAIRNIDRLRKNVDLNIRFSGISNVIPLRELRSKFIGKFVAVDGIVRKTDEIRPRIVKAVFECRGCMRHHAVTQSTNMITEPSLCSECGGRSFRLLQDESEFLDTQTLKLQEPLRNLSGGEQPRQITVVLEDDLVDTLTPGDIVRVTGTLRTVRDERTKRFKNFIYGNYTEFLEQEFEELQISEEDEEKIKELAGDPNIYEKIIRSTAPSIHGYREVKEAIALQLFGGTGKELDDKTRLRGDIHILIVGDPGIGKSQMLKYVSKLAPRGIYTSGKGTSGVGLTAAAVRDEFGGWSLEAGALVLGDKGNVCVDELDKMREEDRSAIHEALEQQTISIAKAGIMATLNSRCSVLAAANPKFGRFDSYKSIAEQIDLPSTILSRFDLIFVVEDKPDEEKDRELARHILKTHKEDHMPFEIDPELLRKYIAYARKNVRPVLTDEAMQVLEDFYVSMRASAADEDSPVPITARQLEALVRLSEASAKIKLKEHVEAEDARKAIKLSQACLKQVGYDPETGKIDIDKVEGRTPKSERDKFRLLLELIKEYEDDYGGRAPTNILITEMMDRYNVSEEKVEELIRILKDKGAIFEPARGYLKIV
B6: Methanothermobacter thermautotrophicus MCM protein, G190A mutant (enzyme, UniProt O27798 1-666, looked up)
chain: MMKTVDKSKTLTKFEEFFSLQDYKDRVFEAIEKYPNVRSIEVDYLDLEMFDPDLADLLIEKPDDVIRAAQQAIRNIDRLRKNVDLNIRFSGISNVIPLRELRSKFIGKFVAVDGIVRKTDEIRPRIVKAVFECRGCMRHHAVTQSTNMITEPSLCSECGGRSFRLLQDESEFLDTQTLKLQEPLENLSGAEQPRQITVVLEDDLVDTLTPGDIVRVTGTLRTVRDERTKRFKNFIYGNYTEFLEQEFEELQISEEDEEKIKELAGDPNIYEKIIRSTAPSIHGYREVKEAIALQLFGGTGKELDDKTRLRGDIHILIVGDPGIGKSQMLKYVSKLAPRGIYTSGKGTSGVGLTAAAVRDEFGGWSLEAGALVLGDKGNVCVDELDKMREEDRSAIHEALEQQTISIAKAGIMATLNSRCSVLAAANPKFGRFDSYKSIAEQIDLPSTILSRFDLIFVVEDKPDEEKDRELARHILKTHKEDHMPFEIDPELLRKYIAYARKNVRPVLTDEAMQVLEDFYVSMRASAADEDSPVPITARQLEALVRLSEASAKIKLKEHVEAEDARKAIKLSQACLKQVGYDPETGKIDIDKVEGRTPKSERDKFRLLLELIKEYEDDYGGRAPTNILITEMMDRYNVSEEKVEELIRILKDKGAIFEPARGYLKIV
B7: Methanothermobacter thermautotrophicus MCM protein, E182R mutant (enzyme, UniProt O27798 1-666, looked up)
chain: MMKTVDKSKTLTKFEEFFSLQDYKDRVFEAIEKYPNVRSIEVDYLDLEMFDPDLADLLIEKPDDVIRAAQQAIRNIDRLRKNVDLNIRFSGISNVIPLRELRSKFIGKFVAVDGIVRKTDEIRPRIVKAVFECRGCMRHHAVTQSTNMITEPSLCSECGGRSFRLLQDESEFLDTQTLKLQRPLENLSGGEQPRQITVVLEDDLVDTLTPGDIVRVTGTLRTVRDERTKRFKNFIYGNYTEFLEQEFEELQISEEDEEKIKELAGDPNIYEKIIRSTAPSIHGYREVKEAIALQLFGGTGKELDDKTRLRGDIHILIVGDPGIGKSQMLKYVSKLAPRGIYTSGKGTSGVGLTAAAVRDEFGGWSLEAGALVLGDKGNVCVDELDKMREEDRSAIHEALEQQTISIAKAGIMATLNSRCSVLAAANPKFGRFDSYKSIAEQIDLPSTILSRFDLIFVVEDKPDEEKDRELARHILKTHKEDHMPFEIDPELLRKYIAYARKNVRPVLTDEAMQVLEDFYVSMRASAADEDSPVPITARQLEALVRLSEASAKIKLKEHVEAEDARKAIKLSQACLKQVGYDPETGKIDIDKVEGRTPKSERDKFRLLLELIKEYEDDYGGRAPTNILITEMMDRYNVSEEKVEELIRILKDKGAIFEPARGYLKIV

Target: the molecule itself
Assay: SEC

| Protein | stoichiometry N |
| --- | --- |
| B1 | 12 |
| B2 | 12 |
| B3 | 12 |
| B4 | 12 |
| B5 | 12 |
| B6 | 12 |
| B7 | 12 |
